Residue numbers refer to the chain shown, from its start. Names may count otherwise.
B1: GST-CBL47–435 M222F (domain or fragment)
chain: PPGTVDKKMVEKCWKLMDKVVRLCQNPKLALKNSPPYILDLLPDTYQHLRTILSRYEGKMETLGENEYFRVFMENLMKKTKQTISLFKEGKERMYEENSQPRRNLTKLSLIFSHMLAELKGIFPSGLFQGDTFRITKADAAEFWRKAFGEKTIVPWKSFRQALHEVHPISSGLEAFALKSTIDLTCNDYISVFEFDIFTRLFQPWSSLLRNWNSLAVTHPGYMAFLTYDEVKARLQKFIHKPGSYIFRLSCTRLGQWAIGYVTADGNILQTIPHNKPLFQALIDGFREGFYLFPDGRNQNPDLTGLCEPTPQDHIKVTQEQYELYCEMGSTFQLCKICAENDKDVKIEPCGHLMCTSCLTSWQESEGQGCPFCRCEIKGTEPIVVDPFD
B2: GST-CBL354–435 Y368F (domain or fragment)
chain: EPTPQDHIKVTQEQFELYCEMGSTFQLCKICAENDKDVKIEPCGHLMCTSCLTSWQESEGQGCPFCRCEIKGTEPIVVDPFD
B3: GST-CBL47–435 Y368F pY371 K389A (domain or fragment)
chain: B1 chain with F176M, Y322F, K343A
modifications: phosphotyrosine at 371
B4: GST-CBL354–435 WT (domain or fragment)
chain: B2 chain with F15Y
B5: GST-CBL354–435 Y371F (domain or fragment)
chain: B2 chain with F15Y, Y18F
B6: GST-CBL354–435 Y368F pY371 (domain or fragment)
chain: B2 chain
modifications: phosphotyrosine at 371
B7: GST-CBL47–435 Y368F pY371 V431A (domain or fragment)
chain: B1 chain with F176M, Y322F, V385A
modifications: phosphotyrosine at 371
B8: GST-CBL354–435 pY371 (domain or fragment)
chain: B2 chain with F15Y
modifications: phosphotyrosine at 371

Biological target: UbcH5B (UniProt P62837 1-147)
Test: SPR

Row | Kd | Binder
1 | 320 µM | B1
2 | 38 µM | B2
3 | 81 µM | B3
4 | 42 µM | B4
5 | 50 µM | B5
6 | 18 µM | B6
7 | 43 µM | B7
8 | 20 µM | B8
